In PMC10127185, “Low complexity domains of the nucleocapsid protein of SARS-CoV-2 form amyloid fibrils” (Nature Communications, 2023):

Biological target: the molecule itself
Experiment: X-ray fiber diffraction

B1: NCAP central low complexity domain segment (construct LCD, residues 171–263) (domain or fragment)
chain: TFYAEGSRGGSQASSRSSSRSRNSSRNSTPGSSRGTSPARMAGNGGDAALALLLLDRLNQLESKMSGKGQQQQGQTVTKKSAAEASKKPRQKRT
notes: also called central LCD; LCD segment; not shown: 6xHis-SUMO, N-terminal, cleaved
Does B1 bind?
Result: binds
